Data on 1 molecule can be found in patent publication US20240342244A1, “Isthmin Protein Therapeutics for the Treatment of Non-Alcoholic Fatty Liver Disease” (The Board of Trustees of the Leland Stanford Junior …, priority 2021, published 2024).

Test [1] concerns NAFLD mice. The test can be described thus: Therapeutic administration for 14 days in mice with established NAFLD. Format: in vivo, mouse. How it is done: Therapeutic ISM1 recombinant protein administration in vivo. All pharmacologic studies using recombinant ISM1 protein were performed in mice with established diet-induced obesity or non-alcoholic fatty liver disease (NAFLD). For all experiments, male C57BL/6J mice purchased from Jax were fed either a high-fat diet (#D12492, Research Diets) or a NAFLD diet (#D09100310, Research Diets) prior to ISM1 protein injections. In all experiments, mice were mock injected with saline for three days prior to protein or drug injections to prevent stress-induced weight loss. Mice were I.P. injected with vehicle (saline) or indicated doses of ISM1 protein diluted in saline. For the 14-day experiments in NAFLD mice, 7-weeks old mice were fed with NAFLD diet for 3 weeks and then mock injected with saline for 3 days prior to protein injections. The induction of lipid accumulation with NAFLD diet was verified by the significant increase in hepatic lipid levels compared with mice on chow diet at the same time point. NAFLD mice were then daily I.P. injected with either vehicle (saline containing 5% DMSO and 10% Kolliphor) or indicated doses of ISM1 protein (500 μg/kg or 5 mg/kg) or with FXR agonist (30 mg/kg, GW4064, Sigma-Aldrich, #G5172) diluted in vehicle (saline containing 5% DMSO and 10% Kolliphor). For the 21-day experiments in HFD mice, mice were mock injected with saline for three days prior to protein injections. Mice were then daily I.P. injected with either vehicle (saline) or 5 mg/kg of ISM1 protein diluted in saline. Metformin (100 mg/kg, Sigma, #317240) was diluted in saline and daily administered by oral gavage. All groups received control injections by I.P. and oral gavage. At the end of the experiments, mice and tissue weights were recorded. Tissues and plasma were collected and frozen for further analyses.
Immunohistochemistry. For H&E staining, livers were formalin-fixed, paraffin-embedded, and sectioned at 6 μm. For hematoxylin and eosin (H&E) staining, sections were deparaffinized and […] with xylenes and ethanol. Briefly, slides were stained with hematoxylin, washed with water and 95% ethanol, and stained with eosin for 30 min. Sections were then incubated with ethanol and xylene, and mounted with mounting medium. For Oil red O stainings, frozen liver tissue slides were fixed with 3% formalin in PBS, washed twice with water, incubated with 60% isopropanol for 5 min and then incubated with Oil Red O solution (3:2 ratio of Oil Red O:H2O) for 20 min. […] Digital images were captured with a Nikon Digital Sight DS-Fi1 color camera and NIS-Elements acquisition software.

Test [2] concerns primary mouse adipocytes. Briefly: 2-deoxy-3H-glucose uptake in primary mouse adipocytes. It counts as cell-based. How it is done: Mouse and human pre-adipocytes culture and differentiation. Inguinal fat pads from 4-8 week old C57BL/6J male and female mice were dissected and mechanically digested for 10 min using spring scissors. Digested tissues were incubated in WAT isolation buffer (10 ml PBS, 2.4 U/ml dispase II (#04942078001, Roche), 10 mg/ml collagenase D (#11088858001, Roche) at 37° C. for 45 min. 20 mL growth media was added and the tissue suspension was filtered through a 100-μm cell strainer and centrifuged at 600×g for 5 min. The cell pellets were resuspended in 20 mL growth media, filtered through a 40-μm cell strainer, centrifuged at 600×g for 5 min, resuspended in 10 mL growth media, and plated in 10-cm collagen-coated dishes. The cells were cultured in growth media (DMEM/F-12 Glutamax, Thermo Fisher Scientific #10565018) supplemented with 10% fetal bovine serum. Two days post-confluency, differentiation was induced with growth media containing 1 μM rosiglitazone, 0.5 mM isobutylmethylxanthine, 1 μM dexamethasone, 5 μg/mL insulin. After two days, cells were re-fed with growth media containing 1 μM rosiglitazone and 5 μg/mL insulin. Cells were fully differentiated after 6-8 days. For ISM1 knockdown or overexpression in primary adipocytes using adenovirus, 500 μL crude virus was mixed with 500 μL fresh growth media containing 1 μM rosiglitazone and 5 μg/mL insulin was added to each well at day 2 of differentiation. At day 4, virus-containing media was removed and 500 μL fresh growth media without stimulators was added to each well. SGBS cells were differentiated as described previously (Fischer-Posovszky et al., 2008; Wabitsch et al., 2001). Briefly, cells were cultured in growth media DMEM/F-12 Glutamax, supplemented with 10% fetal bovine serum, 33 uM biotin, and 17 uM pantothenate. Two days post confluency, differentiation was induced with serum-free DMEM/F12 media containing 33 uM biotin, 17 uM pantothenate, 0.01 mg/ml transferrin, 20 nM insulin, 100 nM cortisol, 0.2 nM triiodothyronine, 25 nM dexamethasone, 0.25 mM isobutyl methylxanthine, and 2 μM rosiglitazone. After four days, cells were re-fed with growth media containing 0.01 mg/ml transferrin 20 nM insulin, 100 nM cortisol, 0.2 nM triiodothyronine. Cells were fully differentiated after day 8-10.
Glucose uptake. Glucose uptake was performed as previously described (You et al., 2017). Briefly, 2-Deoxy-d-[2,6-3H]-glucose was purchased from PerkinElmer NEN radiochemicals. Fully differentiated adipocytes were washed with KRH buffer and starved in 0.5% BSA in KRH buffer for 4 h. Indicated concentrations of insulin or ISM1 were added at indicated time points. Cells were treated with a mixture of 500 μM 2-deoxy-D-glucose and 1.71 μCimL^−1 2-Deoxy-D-[1,2-3H (N)]-glucose for another 10 min followed by three washes using ice cold KRH buffer containing 200 mM glucose. The passive glucose uptake in the presence of 50 uM CytoB was less than 12% of the total glucose uptake. Cells were solubilized in 1% SDS and radioactivity was measured by liquid scintillation counting.

Test [3] relates to pAKTS473. The test can be described thus: In vivo pAKT S473 signaling in tissues after I.V. injection in DIO mice. Also noted: species or system mouse. How it is done: Western blots and molecular analyses. For western blotting, homogenized tissues or whole-cell lysates, samples were lysed in RIPA buffer containing protease inhibitor cocktail (Roche) and phosphatase inhibitor cocktail (Roche). Cell lysates were centrifuged at 14,000×g for 15 min and supernatants were prepared in 4×LDS Sample Buffer (Invitrogen) and separated by SDS-PAGE and transferred to Immobilon 0.45 μm membranes (Millipore). For Western blotting of plasma samples, 1 μl of plasma was prepared in 2× sample buffer (Invitrogen) with reducing agent, boiled, and analyzed using Western blot against indicated antibody. Protein kinase array (R&D systems ARY003B) was performed according to the manufacturers' description. All antibodies used in this paper are described in STAR methods.

The mark [4] stands for this setting: 0.5 mg/kg daily for 14 days, vs vehicle-treated NAFLD mice.
The mark [5] stands for this setting: 5 mg/kg ISM1 vs 30 mg/kg GW4064, 14 days.
Setting [6] is: 5 mg/kg daily for 14 days, vs vehicle-treated NAFLD mice.

B1: ISM1: recombinant mouse ISM1 protein with a C-terminal myc-his tag generated in mammalian HEK 293 Expi cells (protein, UniProt A2ATD1 30-454, looked up)
Isthmin-1: SDRQDAAAGNNNLNLESDSTSETSFPLSKEAPEEHQVVHQPFPRQRFPPETGHPSLQRDGPRSFLLDLPNFPDLSKADINGQNPNIQVTIEVVDGPDSEAEKDQHPENKPSWSLPAPDWRAWWQRSLSLARTNSGDQDDKYDSTSDDSNFLSVPRGWDRPAPGHRTFETKEQPEYDSTDGEGDWSLWSVCSVTCGNGNQKRTRSCGYACIATESRTCDRPNCPGIEDTFRTAATEVSLLAGSEEFNATKLFEVDMDSCERWMSCKSEFLKKYMHKVINDLPSCPCSYPTEVAYSTADIFDRIKRKDFRWKDASGPKEKLEIYKPTARYCIRSMLSLESTTLAAQHCCYGDNMQLITRGKGAGTPNLISTEFSAELHYKVDVLPWIICKGDWSRYNEARPPNNGQKCTESPSDEDYIKQFQEAREY
modifications: C-terminal myc-His tag
notes: recombinant mouse ISM1 protein with a C-terminal myc-his tag generated in mammalian HEK 293 Expi cells
Turning to B1, in test [1] (setting [4]), the “fed blood glucose reduced” value is listed as “not” and the liver weights reduced result was “not”. In addition, in test [1] (setting [5]), the “effect on liver weights, blood glucose and histological signs of steatosis compared with benchmark” value was “as potent as the FXR agonist GW4064 treatment”; the “reversal of hepatic steatosis compared with benchmark” value is listed as “performs equal to the FXR agonist GW4064”. For the same molecule, in test [1] (setting [6]), the fed blood glucose result is given as “reduced” and the liver weights entry is given as “reduced liver weights”. In test [1] (5 mg/kg, 14 days), the “hepatic Fatty Acid Synthase (FAS) protein levels” value is recorded as “reduced hepatic Fatty Acid Synthase (FAS) protein levels” and the “liver Oil red O staining” value is reported as “reduced Oil red O staining”. Also, in test [1] (5 mg/kg, 14 days, vs vehicle treated NAFLD mice), the gross liver morphology entry is “obvious gross morphological changes in liver size and color”. In test [2] (100 nM ISM1 in cells treated with 50 nM insulin, 1 h), the “glucose uptake when added to insulin” value was “further increased insulin-induced uptake”. The “increase in glucose uptake” value in test [2] (100 nM, absence of insulin, across multiple experiments) is recorded as “around 1.5 fold”. Besides, in test [2] (24 h vs 4 h protein treatment, 100 nM), the “desensitization of glucose uptake on prolonged treatment” value is recorded as “does not lead to desensitization”. In addition, the “effect on glucose uptake relative to that of insulin” value in test [2] (primary mouse adipocytes) is given as below 50%. The “pAKTS473 signaling in BAT and liver” value in test [3] (10 mg/kg I.V., 10 min time point) is given as “transient inductions”. Moreover, the “pAKTS473 signaling in iWAT and skeletal muscle” value in test [3] (10 mg/kg I.V., DIO mice) is “activates pAKTS473 signaling at 30 and 60 min”. The “dose inducing the highest pAKTS473 response” value in test [3] (doses ranging from 0.1 mg/kg to 10 mg/kg, iWAT) is listed as 5 mg/kg.
